Measurements taken from the supplement of paper PMC10567573.

B1: KRT33B (parent)
chain: YQSYFKTIEELQQKILCSKSENAR

Variants of: B1
Assay: protein stability index of a GFP-peptide fusion (GPS, HEK-293T) (PSI 1-6); higher = more stable
Conditions: c terminus: a fixed tail appended
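Also: lentivirally expressed fusions sorted by FACS into six bins by GFP to DsRed ratio, PSI derived from sequencing read proportions per bin multiplied by bin number.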

Protein stability index, by site and new letter:
F5: G 2.92; H 1.84; I 2.12; K 2.38; L 2.07; M 3.48; N 2.91; P 2.17; Q 2.78; R 2.53; S 2.81; T 2.59; V 2.26; W 2.44; Y 2.32
K6: A 1.43; C 3.34; D 2.08; E 1.93; F 2.25; G 1.5; H 1.62; I 2.52; L 1.77; M 1.8; N 1.88; P 2.74; Q 1.64; R 1.11; S 2.59; T 1.79; V 2.41; W 2.07; Y 2.55
T7: A 2.21; C 2.1; D 2.42; E 2.31; F 2.11; G 1.8; H 2.31; I 1.97; K 1.88; L 2; M 2.12; N 2.23; P 1.85; Q 1.84; R 1.88; S 1.73; V 2.25; W 1.8; Y 2.08
I8: A 2.44; C 1.84; D 2.07; E 3; F 2.01; G 1.78; H 2.42; K 2.42; L 2.41; M 1.79; N 2.19; P 2.78; Q 2.06; R 1.9; S 1.51; T 1.63; V 2.19; W 1.94; Y 1.93
E9: A 1.98; C 1.79; D 1.9; F 1.53; G 1.86; H 2.25; I 1.9; K 2.9; L 2.17; M 1.78; N 2.69; P 1.66; Q 1.98; R 2.99; S 2.99; T 2.12; V 1.98; W 1.71; Y 2.33
E10: A 2.02; C 1.72; D 2.36; F 2.13; G 2.6; H 1.65; I 1.66; K 2.44; L 1.63; M 1.67; N 2.1; P 2.39; Q 2.69; R 1.89; S 1.65; T 1.87; V 2.28; W 1.71; Y 2.52
L11: A 2.41; C 1.53; D 1.79; E 2.01; F 1.75; G 2.02; H 2.1; I 1.81; K 1.42; M 1.6; N 2.09; P 2.06; Q 1.71; R 1.62; S 1.84; T 1.85; V 2.01; W 2.2; Y 1.8
Q12: A 2.78; C 1.58; D 2.07; E 2.6; F 2.98; G 1.73; H 1.78; I 1.94; K 2.06; L 1.79; M 1.53; N 1.89; P 1.8; R 2.11; S 1.96; T 1.96; V 1.98; W 1.91; Y 1.97
Q13: A 1.79; C 1.3; D 1.55; E 1.81; F 2.04; G 2.09; H 2.09; I 1.35; K 1.85; L 2.2; M 1.4; N 2.19; P 1.83; R 1.68; S 1.86; T 2.23; V 1.78; W 2.6; Y 1.65
K14: A 1.53; C 2.14; D 1.68; E 1.82; F 2.02; G 1.25; H 2.28; I 1.66; L 2.14; M 2.28; N 1.7; P 1.45; Q 2.78; R 2.57; S 1.97; T 1.56; V 1.65; W 3.51; Y 1.61
I15: A 2.14; C 3.74; D 2.05; E 1.81; F 2; G 2.25; H 2.52; K 1.64; L 1.67; M 2.07; N 1.85; P 2.3; Q 2.09; R 1.93; S 1.93; T 1.81; V 1.7; W 1.71; Y 1.73
L16: A 2.13; C 2.52; D 1.87; E 1.73; F 1.93; G 1.92; H 1.96; I 2.14; K 2.39; M 1.85; N 1.84; P 2.12; Q 1.88; R 2.49; S 2; T 1.55; V 2.89; W 2.1; Y 1.41
C17: A 2.16; D 1.65; E 2.49; F 1.39; G 1.87; H 2.31; I 2.07; K 2.19; L 2.87; M 2.54; N 1.95; P 1.77; Q 1.89; R 2.14; S 1.7; T 2.19; V 1.72; W 1.53; Y 1.61
S18: A 2.21; C 2.65; D 1.9; E 2.12; F 1.68; G 2.21; H 1.84; I 2.42; K 1.86; L 1.79; M 2.18; N 1.92; P 1.79; Q 2.26; R 2.18; T 2; V 1.73; W 1.97; Y 2.21
K19: A 1.72; C 1.84; D 1.72; E 2.56; F 1.7; G 2.08; H 1.76; I 1.71; L 1.54; M 1.69; N 1.86; P 2.14; Q 2.08; R 2.06; S 1.78; T 2.3; V 1.7; W 1.57; Y 1.84
S20: A 2.02; C 1.95; D 2.32; E 1.65; F 1.97; G 1.38; H 1.82; I 1.92; K 2.05; L 1.73; M 1.63; N 2.13; P 1.99; Q 1.81; R 1.89; T 1.87; V 2.04; W 1.56; Y 1.95
E21: A 1.86; C 1.79; D 1.77; F 2.06; G 1.72; H 1.79; I 1.6; K 1.79; L 1.7; M 2.13; N 1.79; P 1.8; Q 2.1; R 1.77; S 1.54; T 1.77; V 1.65; W 1.28; Y 1.75
N22: A 2.31; C 2.3; D 1.82; E 1.89; F 1.67; G 1.99; H 2.18; I 1.71; K 1.8; L 1.86; M 1.93; P 1.46; Q 2.19; R 1.49; S 2.5
